# Measurements reported in patent US20230272113A1.
# Molecular target: human FLT3 on transfected CHO cells (human) (UniProt P36888)
# Assay: FACS, scFv on CHO-human FLT3 cells pre-incubated with FLT3 ligand (competitor)
row,median [+ligand]/median [w/o ligand]*100 [%],Binder
1,> 75,FL-35 (scFv) scFv: QVTLKESGPALVKPTETLTLTCTVSGFSLNNARMGVSWIRQPPGKALEWLAHIFSNDEKSYSTSLKNRLTISKDSSKTQVVLTMTNVDPVDTATYYCARIVGYGTGWYGFFDYWGQGTQVTVSSGGGGSGGGGSGGGGSDIQMTQSPSSLSASVGDRVTITCRASQDIRDDLVWYQQKPGKAPKRLIYGTSTLQSGVPSRFSGSGSGTEFTLTISSLQPEDFATYYCLQHHSYPLTFGGGTKLEIK
2,> 75,FL-41 (scFv) scFv: QVTLKESGPVLVKPTQTLTLTCTFSGFSLSNARMGVSWIRQPPGKCLEWLAHIFSNDEKSFSTSLKNRLTISKDTSKSQVVLTMTNMDPVDTATYYCARMVGYGSGWYAYFDYWGQGTQVTVSSGGGGSGGGGSGGGGSDIQMTQSPSSLSASVGDRVTITCRASQSISSYLNWYQQKPGKAPKLLIYAASSLQSGVPSRFSGSGSGTDFTLTISSLQPEDFATYYCLQHNSYPLTFGCGTKVEIK
3,> 75,FL-42 (scFv) scFv: QVTLKESGPALVKPTETLTLTCTLSGFSLNNARMAVSWIRQPPGKCLEWLAHIFSNDEKSYSTSLKSRLTISKDTSKSQVVLTMTNMDPEDTATYYCARIVGYGTGWYGFFDYWGQGILVTVSSGGGGSGGGGSGGGGSDIQMTQSPSSLSASVGDRVTITCRASQGIRNDLAWYQQKPGKAPKRLIYAASSLQSGVPSRFSGSGSGTEFTLTISSLQPEDFATYYCLQHNSYPLTFGCGTKVEIK
4,> 75,FL-40 (scFv) scFv: QVTLKESGPTLVKPTETLTLTCTVSGFSLSNARMGVSWIRQPPGKCLEWLANIFSNDEKSYSTSLKSRLTISKGTSKSQVVLTMTNVNPVDTGTYYCARIVGYGSGWYGYFDYWGQGTLVTVSSGGGGSGGGGSGGGGSDIQMTQSPSSLSASVGDRVTITCRASQDIRNDLGWYQQKPGKAPKRLIYATSIRQSGVPSRFTGSGSGTEFTLTISGLQPEDFATYFCLQHNSFPLTFGCGTKVEIK
5,> 75,FL-36 (scFv) scFv: QVTLKESGPTLVKPTETLTLTCTFSGFSLRYARMGVSWIRQPPGKALEWLAHIFSNDEKSYSTSLKSRLTISKDTSKSQVVLTLTNMDPVDTATYFCARMPEYSSGWSGAFDIWGQGTMVTVSSGGGGSGGGGSGGGGSDIQMTQSPSSLSASVGDRVTITCRASQDIRNDLAWYQQKPGKAPKRLIYAASSLQSGVPSRFSGSGSGTEFTLTISSLQPEDFATYYCLQHNSYPLTFGGGTKLEIK
6,> 75,FL-37 (scFv) scFv: QVTLKESGPVLVKPTETLTLTCTVSGFSLRNIKMGVSWIRQPPGKALEWLAHIFSNDEKSYSTSLKSRLTISKDTSKSQVVLTLTNMDPVDTATYFCARMPEYSSGWSGAFDIWGQGTMVTVSSGGGGSGGGGSGGGGSDIQMTQSPSSLSASVGDRVTITCRASQDISNYLAWYQQKPGKAPKRLIYAASSLQSGVPSRFSGSGSGTEFTLTISSLQPEDFATYYCLQHNSFPLTFGGGTKLEIK
7,> 75,FL-38 (scFv) scFv: QVTLKESGPVLVKPTETLTLTCTVSGFSFRNARMGVSWIRQPPGKALEWLAHIFSNDEKSYSTSLKSRLTISKDTSKSQVVLTLTNMDPVDTATYFCARMPEYSSGWSGAFDIWGQGTLVTVSSGGGGSGGGGSGGGGSDIQMTQSPSSLSASVGDRVTITCRASQGIRNDLGWYQQKPGKAPKRLIYAASSLQSGVPSRFSGSGSGTEFTLTISSLQPEDFATYYCLQHNSYPLTFGGGTKLEIK
8,> 75,FL-34 (scFv) scFv: QVTLKESGPALVKPTETLTLTCTFSGFSLRNARMGVSWIRQPPGKALEWLAHIFWNDEKSYSTSLKSRLTISKDTSKSQVVLTMTNMDPVDTATYYCARIPYYGSGSYNYGMDVWGQGTTVTVSSGGGGSGGGGSGGGGSDIQMTQSPSSLSASVGDRVTITCRASQGIRNDLGWYQQKPGKAPKRLIYAASSLQSGVPSRFSGSGSGTEFTLTISSLQPEDFATYYCLQHNSYPLTFGGGTKLEIK
9,> 75,FL-32 (scFv) scFv: QVTLKESGPTLVKPTETLTLTCTVSGFSFRNARMGVSWIRQPPGKALEWLAHIFSNDEKSYSTSLKSRLTISKDTSKGQVVLTMTNMDPVDTATYYCARIVGYGSGWYGYFDYWGQGTLVTVSSGGGGSGGGGSGGGGSDIQMTQSPSSLSASVGDRVTITCRASQGIRNDLVWYQQKPGKAPKRLIYAASTLQSGVPSRFSGSGSGTEFILTISSLQPEDFATYFCLQHYSYPLTFGGGTKLEIK
10,> 75,FL-29 (scFv) scFv: QVTLKESGPALVKPTQTLTLTCTFSGFSLSNARMGVSWIRQPPGKALEWLAHIFSNDEKSYRTSLKSRLTISKDTSKSQVVLTMTNMDPVDTATYYCARIVGYGSGWYAYFDYWGQGTLVTVSSGGGGSGGGGSGGGGSDIQMTQSPSSLSASVGDRVTITCRASQGIRNDLGWYQQKPGKAPKRLIYAASSLQSGVPSRFSGSGSGTEFTLTISSLQPEDFATYYCLQHNSYPLTFGGGTKVEIK
11,> 75,FL-31 (scFv) scFv: QVTLKESGPALVKPTQTLTLTCTFSGFSLSNARMGVSWIRQPPGKALEWLAHIFSNDEKSYSTSLKSRLTISKDTSKSQVVLTMTDMDPEDTATYYCARIVGYGTGWYGFFDYWGQGILVTVSSGGGGSGGGGSGGGGSDIQMTQSPSSLSASVGDRVTITCRTSQGIRNDLGWYQQKPGKAPKRLIYAASSLQSGVPSRFSGSGSGTEFTLTISSLQPEDFATYYCLQHNSYPLTFGGGTKVEIK
12,> 75,FL-39 (scFv) scFv: QVTLKESGPTLVKPTETLTLTCTLSGFSLNNARMGVSWIRQPPGKCLEWLAHIFSNDEKSYSTSLKNRLTISKDSSKTQVVLTMTNVDPVDTATYYCARIVGYGSGWYGFFDYWGQGTLVTVSSGGGGSGGGGSGGGGSDIQMTQSPSSLSASVGDRVTITCRASQGIRNDLGWYQQKPGKAPKRLIYAASTLQSGVPSRFSGSGSGTEFTLTISSLQPEDFATYYCLQHNSYPLTFGCGTKVEIK
13,> 75,FL-30 (scFv) scFv: QVTLKESGPVLVKPTQTLTLTCTFSGFSLSNARMGVSWIRQPPGKALEWLALIYWNDDKRYSPSLKSRLTITKDTSKNQVVLTMTNMDPVDTATYYCARMVGYGSGWYAYFDYWGQGTLVTVSSGGGGSGGGGSGGGGSDIQMTQSPSSLSASVGDRVTITCRASQGIRNDLGWYQQKPGKAPKRLIYAASSLQSGVPSRFSGSGSGTEFTLTISSLQPEDFATYYCLQHNSYPLTFGGGTKVEIK
14,> 75,FL-33 (scFv) scFv: QVTLKESGPVLVKPTETLTLTCTVSGFSLRNARMGVSWIRQPPGKTLEWLAHIFSNDEKSYSTSLKSRLTISKDTSKGQVVLTMTNMDPVDTATYYCARIVGYGSGWYGYFDYWGQGTLVTVSSGGGGSGGGGSGGGGSDIQMTQSPSSLSASVGDRVTITCRASQGIGDDLGWYQQIPGKAPKRLIYATSVLQSGVPSRFSGSGSGTEFTLTISSLQPEDFATYYCLQHNSYPLTFGGGTKLEIK
